Assay [1] addresses T1, CCR7 (Homo sapiens, UniProt P32248).
T1 construct: expressed in transfected cells; host or cells: CHO cells, transient lipofectamine co-transfection with the Camyel cAMP BRET sensor
T1 sequence (P32248 25-378): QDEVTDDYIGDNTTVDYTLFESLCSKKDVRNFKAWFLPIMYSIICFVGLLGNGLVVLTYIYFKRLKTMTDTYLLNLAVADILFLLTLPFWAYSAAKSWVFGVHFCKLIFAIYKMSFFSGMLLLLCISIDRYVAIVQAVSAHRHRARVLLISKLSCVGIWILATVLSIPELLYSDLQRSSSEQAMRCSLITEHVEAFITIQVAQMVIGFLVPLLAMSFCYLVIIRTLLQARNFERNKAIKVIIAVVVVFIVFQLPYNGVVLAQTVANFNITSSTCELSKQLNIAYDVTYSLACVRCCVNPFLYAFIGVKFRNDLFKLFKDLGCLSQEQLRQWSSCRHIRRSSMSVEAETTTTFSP
As to the kind of experiment: CCR7 signalling via Gαi (cAMP decrease, Camyel BRET) in transfected CHO cells. Type of assay: cell-based. Particulars: BRET ratio; for G-protein signalling via CCR7 induced by the chemokine itself (comparison): FIG. 4A-D; for effect of peptide on CCL19-induced CCR7 signalling / effect of peptide on CCL19 chimera-induced CCR7 signalling / effect of peptide on full-length CCL21-induced CCR7 signalling / effect of peptide on tailless CCL21-induced CCR7 signalling: peptide 10 μM. How it is done: CCR7 signalling induced by CCL19, CCL21, CCL19 chimera (CCL19 with CCL21 tail) and tailless CCL21 was investigated. Signalling was detected as a decrease in cAMP which is reflected by an increase in BRET (Bioluminescence resonance energy transfer) ratio.
CHO cells were grown in RPMI medium with 10% FBS and 1% Penicillin/Streptomycin. Cells where seeded in a concentration yielding 1,000,000 cells/well on transfection day (using 6-well-plates).
Cells were transfected with CCR7 and Camyel-encoding plasmids (in 1:5 ratio) using lipofectamine with a total of […] of DNA and […] lipofectamine per well. After 24 hours, the cells where washed in PBS and resuspended in PBS with glucose (final concentration 5 mM).
After harvesting, cells where pooled in two groups. One group was used as a control, whereas the other was supplemented with SEQ ID NO: 1 (CCL21 tail peptide (D1-4)) in a final concentration of 10 μM.
The cells where plated in a 96-well black-white iso plate according to setup. Coelenterazine (final concentration of 5 μM) was added and cells were incubated for 10 min. The 4 ligands (CCL19, CCL21, CCL19 chimera, and tailless CCL21) were added to respective wells. An equal amount chemokine buffer was added to wells without ligands. Forskolin was added to the wells 5 min after addition of ligands.
The BRET ratio was measured as the ratio eYFP/RLuc (BRET 525 emission/BRET 485 emission). In the absence of ligand, bioluminescence resonance energy transfer (BRET) between RLuc and eYFP, both harboured by the Camyel sensor, is high, giving rise to emission from both RLuc and eYFP and a concomitant high BRET ratio. When cAMP binds to the camyel sensor, bioluminescence resonance energy transfer from RLuc to eYFP is decreased, lowering emission from eYFP and thus lowering the BRET ratio. This means that stimulation of receptors that signal via an increase in cAMP leads to a decrease in BRET ratio. The opposite is the case upon stimulation of chemokine receptors that signal via a decrease in cAMP, giving rise to an increase in eYFP and thus BRET ratio.
In general terms: BRET reads energy transfer from a luciferase to a nearby fluorophore.

Assay [2] has as its system neutrophil. The note with it: through inhibition of GAG-binding of CXCL8; cited from earlier work.
Assay [3] deals with monocyte derived human DCs (moDC). As to the kind of experiment: Ibidi 3D μ-slide chemotaxis assay of monocyte derived human DCs (moDC). Type of assay: cell-based. The note with it: for potentiating effect on CCL21 induced chemotaxis of moDC (in words): FIG. 3, 6, 7, 8; for potentiation of moDC chemotaxis induced by CCL19: CCL19 1 and 10 nM, FIG. 1 column 5-8. The protocol: Ibidi3D μ-slide chemotaxis assay. Mature monocyte derived human DCs were thawed by adding pre-warmed X-vivo, 2% FCS and Glutamine, dissolving in a total of 10 ml of medium. After centrifugation (220×g, 5 min), the DCs were resuspended in fresh medium and left to acclimatize for 20 min.
The collagen mixture with cells was prepared according to the manufacturer's protocol. Briefly, 10 μl 7.5% NaHCO3 was mixed with 20 μl 10×MEM and 150 μl Pure Col was added. After mixing, 90 μl of a mixture of DCs (1×10^6 cells/ml) and CCL21 Tail peptide (final concentration 10 μM) was added. The cell/collagen solution was transferred to the ibidi μ-slide channel holding 6 μl. The collagen with cells was allowed to crosslink in the incubator for 45 minutes in a humidified petridish (holding napkins wetted in sterile water). While filling sink and source reservoirs, the channel and second reservoir were kept plugged. Medium with chemokine buffer (X-vivo 15, 2% HS, glutamine) and Tail-peptide was added to the sink (60 μl), and medium with chemokine plus Tail-peptide was added to the source (60 μl). The setup was transferred to Time-lapse. Cells were tracked for 10 hours and films were analyzed using Autozell tracking program. A population based chemotactic index (CI) was extracted using MatLab.

The test system is the same in assay [4]. The description is as above. Type of assay: cell-based. The note with it: 10 nM CCL21; peptide dose dependent; FIG. 1 column 1-4.
Assay [5] relates to CT26-FL3-luc cancer cells. The assay is described as follows: In vivo cancer growth of CT26-FL3-luc cells in Balb/c mice (bioluminescence, IVIS). Particulars: FIG. 5; for tumor growth (bioluminescent signal, total flux): Balb/c mice. The protocol:
SEQ ID NO: 1 was tested for its effect on in vivo cancer growth in mice. Female Balb/c mice were injected intraperitoneally with 1.5×10^5 CT26-FL3-luc cancer cells on day 0. The CT26-FL3-luc cell line is derived from a highly metastatic murine colorectal cancer and has been engineered to express luciferase. On days 1, 2, and 3, the mice were injected intraperitoneally with either 0.25 μg murine CCL21, 20 μg human CCL21-Tail peptide (SEQ ID NO: 1), or vehicle (PBS). The CCL21 concentration was determined based on previously published in vivo experiments using CCL21. Administration of SEQ ID NO: 1 functions by a different mechanism than administration of CCL21 as SEQ ID NO: 1 affects the distribution of endogenous CCL21 in the surrounding tissue. Cancer growth was followed over time in live animals by injecting luciferin intraperitoneally and measuring the bioluminescent signal arising from the luciferase-expressing cancer cells using an In Vivo Imaging System (IVIS®) scanner. The bioluminescent signal (total flux) was used to quantify the cancer growth. The number of mice per group was 5-7, and data is shown as mean±SEM.

The test system of assay [6] is tumour cells. Particulars: CCL21 administered to tumor sites; cited from earlier work.

For “CCL19: chemokine, endogenous ligand of CCR7”, the “G-protein signalling via CCR7 induced by the chemokine itself (comparison)” value in assay [1] is “more potent than CCL21”.

Take “CXCL9(74-103): CXCL9 C-terminal peptide capable of binding GAGs (Vanheule et al. 2017) (KKKQKNGKKHQKKKVLKVRKSQRSRQKKTT; UniProt Q07325 96-125, looked up, fragment)”: the CXCL8-induced neutrophil migration result in assay [2] is “inhibit CXCL8-induced neutrophil migration”.

For “KDRGASKTG KKGKGSKGCK RTERSQTPKG P (KDRGASKTGKKGKGSKGCKRTERSQTPKGP; listed as Homo sapiens) [SEQ ID NO: 6, CCL21 82-111]”, the “potentiating effect on CCL21 induced chemotaxis of moDC (in words)” value (shortened to “potentiating effect”) in assay [3] is on record as “reduced capability to potentiate chemotaxis”.

Consider “PSPQKPAQGC RKDRGASKTG K (PSPQKPAQGCRKDRGASKTGK; listed as Homo sapiens) [SEQ ID NO: 36, C terminally truncated fragment of CCL21 71-111]”, for which the “potentiating effect” value in assay [3] is given as “did not potentiate chemotaxis”.

For the molecule “PSPQKPAQGCRKDRGASKTGKKGKGSKGCKRTERSQTPKGP (PSPQKPAQGCRKDRGASKTGKKGKGSKGCKRTERSQTPKGP; listed as Homo sapiens) [SEQ ID NO: 1, full length C-terminal tail of CCL21, CCL21 71-111 (D1-D4)]”, in assay [1] (FIG. 4), the “effect of peptide on CCL19-induced CCR7 signalling” value is reported as “no effect”, the “effect of peptide on CCL19 chimera-induced CCR7 signalling” value is listed as “potentiated”, the “effect of peptide on full-length CCL21-induced CCR7 signalling” value was “potentiated” and the “effect of peptide on tailless CCL21-induced CCR7 signalling” value is “no effect”. Moreover, in assay [1] (FIG. 4, listed as CCL21 71-111), the “effect of peptide on CCL19-induced CCR7 signalling” value is given as “essentially no difference in CCR7 signalling”, the “effect of peptide on CCL19 chimera-induced CCR7 signalling” value was “increased CCR7 signalling”, the “effect of peptide on full-length CCL21-induced CCR7 signalling” value is reported as “increased CCR7 signalling” and the “effect of peptide on tailless CCL21-induced CCR7 signalling” value is listed as “essentially no difference in CCR7 signalling”. In assay [3] (peptide 10 uM), the “potentiation of moDC chemotaxis induced by CCL19” value is given as “less than two fold”. In assay [3] (peptide 10 uM, listed as CCL21 71-111), the “potentiation of moDC chemotaxis induced by CCL19” value is “only two fold”. The “potentiation of moDC chemotaxis induced by CXCL12gamma” value in assay [3] (CXCL12gamma 20 and 100 nM, peptide 10 uM, FIG. 1 column 9-12) is “no strong chemotaxis signal”. In addition, the “potentiating effect” value in assay [3] is given as “retained full potency”. Moreover, the “potentiation of moDC chemotaxis induced by CCL21” value in assay [4] is “up to 26 fold”. In addition, the “tumor growth (bioluminescent signal, total flux)” value in assay [5] (20 μg peptide intraperitoneally on days 1, 2, 3) was “decreased tumor growth”. For the same molecule, the “effectiveness on tumor growth compared with CCL21 treatment” value in assay [5] (20 μg peptide vs 0.25 μg murine CCL21, intraperitoneally) is recorded as “more effective than treatment with the chemokine CCL21”.

In the case of “RKDRGASKTGKKGKGSKGCKRTERSQTPKGP (RKDRGASKTGKKGKGSKGCKRTERSQTPKGP; listed as Homo sapiens) [SEQ ID NO: 4, CCL21 81-111 (D2-D4)]”, the “potentiating effect” value in assay [3] was “retained full potentiating effect”.

“TG KKGKGSKGCK RTERSQTPKG P (TGKKGKGSKGCKRTERSQTPKGP; listed as Homo sapiens) [SEQ ID NO: 13, CCL21 89-111]”: in assay [3], the “potentiating effect” value is “retain full potentiating effect”.

B1: murine CCL21: murine chemokine CCL21 injected intraperitoneally as comparison treatment (protein, UniProt P84444 24-133, looked up)
C-C motif chemokine 21a: SDGGGQDCCLKYSQKKIPYSIVRGYRKQEPSLGCPIPAILFSPRKHSKPELCANPEEGWVQNLMRRLDQPPAPGKQSPGCRKNRGTSKSGKKGKGSKGCKRTEQTQPSRG
As for B1, the “tumor growth (bioluminescent signal, total flux)” value in assay [5] (0.25 μg murine CCL21 intraperitoneally on days 1, 2, 3) was “decreased tumor growth”.

B2: CCL19 chimera: CCL19 with CCL21 Tail peptide attached at the C-terminus (protein)
chain: GTNDAEDCCLSVTQKPIPGYIVRNFHYLLIKDGCRVPAVVFTTLRGRQLCAPPDQPWVERIIQRLQRTSAKMKRRSSPSPQKPAQGCRKDRGASKTGKKGKGSKGCKRTERSQTPKGP
In the case of B2, the “G-protein signalling via CCR7 induced by the chemokine itself (comparison)” value in assay [1] is reported as “resembles CCL21 signalling”.

B3: SDGGAQDCCLKYSQRKIPAKVVRSYRKQEPSLGCSIPAILFLPRKRSQAELCADPKELWVQQLMQHLDKTPSPQKPAQGCRKDRGASKTGKKGKGSKGCKRTERSQTPKGP (protein, listed as Homo sapiens)
chain: SDGGAQDCCLKYSQRKIPAKVVRSYRKQEPSLGCSIPAILFLPRKRSQAELCADPKELWVQQLMQHLDKTPSPQKPAQGCRKDRGASKTGKKGKGSKGCKRTERSQTPKGP
notes: chemokine, endogenous ligand of CCR7; full length CCL21 without the signal peptide
Consider B3, for which the “growth of tumour cells” value in assay [6] is on record as “reduced growth of the tumour cells”.

The record behind these values is patent publication US20210030838A1, “CHEMOTAXIS-POTENTIATING PEPTIDES AND USES THEREOF” (University of Copenhagen, priority 2017, published 2021).
